Data reported in paper PMC10462622.

Tests used:
[1] = target: HIV-1 NL4-3 Vif N48H (residues 1-176) (HIV-1 (pNL4-3)) (UniProt P12504)
[2] = target: HIV-1 pNL4-3 Vif N48H/R93E, expressed in HEK293T (HIV-1 (pNL4-3)) (UniProt P12504)

Substance	Vif-mediated degradation assay: resistance of A3H to Vif (+N48H), Western blot [1] [%]	Vif-mediated degradation assay: increase of the A3H level in the presence of the Vif mutant, Western blot [2] [%]
human A3H K97Q/E70R, expressed in HEK293T (natural protein)	40	
human A3H haplotype II K97Q (MBP tag cleaved) (natural protein)		70
